Experimental data published in a protein production outcome set (Wang et al. 2014).

test: label from the status in PepcDB records
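Further: failed if final PepcDB status was selected cloned or expressed and not failed if soluble or beyond.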

Sequence	protein production
MSELGNRAKDQKKIYQRWAPVYDRVYRGILRDGHRKLAGLAAAAGTDILEIGTGTGLTLAHYPSRCRVTGIDISEHMIARAREKVRRENLRHVRALEVMDAHVLRFADKSFDVVCLPFVITLIPEPERALDECARVLRPGGEIILASKLGDGAGLQGAIEAAVAPLVRHIGWSSAFRIHRIVAWAERRGDFSTAEILPVFPNGFFKIVRLKQRGFSA	failed
MSELIKHSSNFLAAISPDNDCSITATNDFEAMMSWLNGYKKKPINTSRNYAREVKRYLIWLSCQGLTLAQVKIEDVYEYFNLLERPTTEWIIPDKKTDKIYPTQLIKYGGLSNRSINYTHTVLGLFYSFLQDAGYLTKNPINLEHHHHHH	failed
MSELIKHSSNFLAAISPDNDCSITATNDFEAMMSWLNGYKKKPINTSRNYAREVKRYLIWLSCQGLTLAQVKIEDVYEYFNLLERPTTEWIIPDKKTDKIYPTQLIKYGGLSNRSINYTHTVLGLFYSFLQDAGYLTKNPINLVKKASATTESEQYRHLDLPAWQTLWTWILGYENRVITEDQPAKMIKKASRYRWVFALLYHSGIRCAEAANALMSDLVRKNNTWSLKVTGKGNKMRLVTVNSLLLKELIHYRRSLLLTDYPSSHDDTPLIVSIQKNRQGSMTTRTLSSLIKEVTELVCADCQDDQITRQIETMTTHWLRHTNATHRFMAGASLETTQDELGHADPRTTRIYAKTSNEKRKLDAERLADLFDGIG	failed
MSELTAFGHSLSSGYEVVVIKPQSLSDTTLIVQALRADKAVILNLEHLDVAEAQRISDFAAGSTYAINGHQSRLGDGVFLFTPNVINIQERTAVPTPAGLV	failed
MSEMIYGIHAVQALLERAPERFQEVFILKGREDKRLLPLIHALESQGVVIQLANRQYLDEKSDGAVHQGIIARVKPGRQYQENDLPDLIASLDQPFLLILDGVTDPHNLGACLRSADAAGVHAVIVPKDRSAQLNATAKKVACGAAESVPLIRVTNLARTMRMLQEENIWIVGTAGEADHTLYQSKMTGRLALVMGAEGEGMRRLTREHCDELISIPMAGSVSSLNVSVATGICLFEAVRQRS	not failed
MSEMLYILQTVLLPIFIMIFLGYILQKKFTLDLNTLAKLNIYVFVPGFIFVKFYKTHFALSLLFYIIIFFVIYMFVLFLIGKLLSMFRKTDKGETTTLTNSLMFFNSGNYGVPVNDLVFKGDPLAMSVQVIVLSLQNIFTFSYGVFAIQSLHIGKLKALLGYFKMPVLYALLLAIILNYNHIPIPEFIWTPANYVADAMIAIALLMLGAQISNIKFSLKWSKSYAYVFIRLIIGPLIALVIIKIMGIEGIIAQTLFIASAMPTSVNSSVIAQEYDNHPELAAELVFLSTLLSAITVVIVIYMSKILF	failed
MSEMSPKEFKHILVGVDDSDDAQLAFRYAINRAKSDGAKLTIVSILEQDNMNVYEAMSKDFVHGQRKDLEEHVQQYQKLARDFGVTDVNAVVDEGDPGETIVKTVIPALKPDLLVIGSVAKHGVRKYFGSQAAYMAKHAPISVLVIR	failed
MSENMVNLPDSLYEDYSKLKLTSPSNASSSSSAPPPRLSVVAHPTVEMIIQWVCDIHKPKSYMSDFALHNLAYHRNDFEFLPSLLWESKNTVYIMLQEVFEAYRHLAGHISLRLFPHPLNPLRVYNVFLLFQSMACHPDTSRQFLRAKMPNYFYPLMDTGLIDKSDECMRLAALGVIAHMLKASEDGAVNRYLMESGVVGFCVKPIEFGSTETKKVALYILDKIMSTDQGLYYCCVLADRFYVIDELLKKVLFYLSNMVRPPSSLFSLVTGCYVKLSQNSRARNGIRRYTPFLLFDGTFSRLYAEDPVAANNRIQLLQNLDN	failed
MSENQKEVSPPQAISVKSEASSSIFSKPISTSSPAGLAAAQRVTPGKLSTLLLEMGPLAIRHITQTLCLDIPCFKDLSSSKQRRLIMSAMESGDKEKSVVFEKIGWGQWSAKRVDPANFDKELEATNFANAKVKDLISQESQRRKSNNSNSNSGGKVEMPMKVEHNITNIDGATTPPTAVASTTIPVNIKRSKSPLAAANVVYIDENALASEDEDEEFDEDDHHLHYQNKSRNSSNNFGKSSNGDPYSFGRRRSQVVFADSTPENIEHEIIAQKIRPLLRNRRRSSIKPHTPFISKLNTHQDSSYLSPNTTSTTTPSNNNSNSNQAKIDLEKLTATSEPTSRRASRLSVSKESSIRSTLFPNKNYLIVTTNPNSKATSVSTSPKLEEQMNVSSNPIVLSDKEKHRVASQHLNGESSPQLVPHSHHQPHSDTDEEDWESIGAASLRNNSLAPNIDSVASSTNGVVSPKPTNPSFTNSQNGDIEPPLQHDQQKHEQQPRNGEDNSAAFLLMSLKS	not failed
MSEPVSSATVLAGGLMGASVFGLATGTDYGVVFGAFAGSVFYVATATNIGRIRLVAYFITSFIVGVLGAGLIGTKLAAITHYEKPLDALGAVIISAMCIKFLTFLNSQDLNTLFSILSRIRGGGSDGSK	failed
MSEQPSSVSGVKKVAIIPEIHISAPVLAKIVSYVAEESVDALKPFVKAGPLFKSAVYSKETLSCVRLDKSRYYMWWSTTHSIYYHFFTKSLEAKNPHALNAVLYKPIAYENFAAECYRATLWAELYGEYEA	failed
MSEREHWQRVYESKPSDAVSWFQAEATLSLDLIRRIGAPREAAIIDVGGGASTLVDGLLAEGFGDLTVLDLSDAALRVARNRLGARGEEVRWIAGDITGVDLPEATYDVWHDRAVFHFLTTAEARRAYVRQVMKAVRHGGHVIVATFAADGPTECSGLPVMRYDADELHAEFGSAFQLTEHRDEHHVTPAGRVQHFVYCHCLKRLLEHHHHHH	failed
MSESTYPSVKDLTLEEKASLTSGGDSWHLQGVESKGIPGYMITDGPHGLRKSLASSTGETDLNNSVPATCFPPAAGLSSSWNPELIHKVGEAMAEECIQEKVAVILGPGVNIKRNPLGGRCFEYWSEDPYLAGHEAVGIVAGVQSKGVGTSLKHFAANNQETDRLRVDARISQRALREIYLPAFEHIVKTAQPWTIMCSYNRINGVHSAQNHWLLTDVLRDEWGFEGIVMSDWGADHDRVASLNAGLNLEMPPSYTDDQIVYAARDGRIAPAQLDRMAQGMIDLINKACAAMSIDGYRFDVDAHDEVAHQAAIESIVLLKNDDAILPLNADPAAARKIAVIGEFARTPRYQGGGSSHITPTKMTSFLDTLAERGIKADFAPGFTLDLEPADPALESEAVETAKNADVVLMFLGLPEAAESEGFDRDTLDMPAKQIALLEQVAAANQNVVVVLSNGSVVSVAPWAKNAKGILESWLLGQSGGPALADVIFGQVSPSGKLAQSIPLDINDDPSMLNWPGEEGHVDYGEGVFVGYRYYDTYGKSVDYPFGYGLSYATFEIADVAAAKTGANTATVTATVTATVTNTSDVDAAETVQVYVAPGKADVARPKHELKGFTKVFLKAGESKSVTIDLDERAFAYWSEKYNDWHVESGEYAIEVGVSSRDIADTVVVTLEGDGKSQPLTEWSTYGEWEADPFGAKIVAAVAAAGEAGELTKLPDNAMMRIFLNSMPINSLSTLLGEGGKKIAKFMVDEYAKLAK	failed
MSETITFPPLMTGEAAGPGQDPFDLACQKAELGVDAGLVVYELGTDVLRAALVLAPEVPLAKAMAMLPVCGVGFQNALGALAPPEVAVHLDWNGALRINGARCGRLRIAASTDDPDTQPDWLVVGLDLPLWPEGDGGETPDETALYAEGCADVAAPRLLESWARHCLHWINRWDEGELETIHGEWRGLAHGMGEARTEAGRSGTFLGVDEDFGMLLRDETTTHLIPLTTVLVQD	not failed
MSETTQTSQSLYQALWNSADVLRSKMDANDYKSYLLGMVFYKYLSDKMLFFVAETMEEETESLDEALAVYRKYYEDEETHEDLLAVITDEMSYAIHPDLTFTALVERVNDGSFQLEDLAQGFRDIEQSDELYENLFEDIDLYSKKLGATPQKQNQTVAAVMKELAVLDVAGHAGDMLGDAYEYLIGQFATDSGKKAGEFYTPQPVAKLMTQIAFLGREDKQGFTLYDATMGSGSLLLNAKRYSRQPQTVVYFGQELNTSTYNLARMNMILHGVPIENQFLHNADTLDEDWPTQEPTNFDGVLMNPPYSAKWSASSGFMDDPRFSPFGKLAPKSKADFAFLLHGYYHLKQDNGVMAIVLPHGVLFRGNAEGTIRKALLEEGAIDTVIGLPANIFFNTSIPTTVIILKKNRTNRDVYFIDASKEFDKGKNQNIMTDAHIEKILNAYKSREDIDKFAHLASFEEIVENDYNLNIPRYVDTFEEEEVEPLTEIVAKINQTNATIESQTASLLDMLGQLHGTTPEADEELKAFVKAFKGLEHHHHHH	failed
MSETVTQVNETTQQIVRSRTCGLKDFYIALVQSNTATAYTAGTPVKLARAIKAKIDEKWTSEKIYSDDNTEEVITSYEGTDVELEINALAPQDRVILFGQLYEKGFLRKSSDDRAPEVAVGWRERKLNGKYEFKWLYVGKFAEGISEEASTLEHHHHHH	not failed
MSEVLTRGFRFRPADEEVTDYLMRKTQSPEFSCFIKTIDLYDKDPWVLGHVRDPCYNHYEWYYFVKKNPLGNEYLDKPRLNGFEHPRLKWDVLKQIHDALSSGQNVPPSVFTYGFRFHPTDQELLSLYLTPKAHSPDFSCFIRERESYMPWSHGFLNMLDLLFTRTVNGTTL	failed
MSEVTRSLLQRWGASLRRGADFDSWGQLVEAIDEYQILARHLQKEAQAQHNNSEFTEEQKKTIGKIATCLELRSAALQSTQSQEEFKLEDLKKLEPILKNILTYNKEFPFDVQPI	not failed
MSEWRGFNRKGNTMKIRPGRHNAPDFPHGAAVTIGNFDGVHLGHKHILQKLRLEADARGLPVVAVVFEPQPKEFFALRTGKTPPCRISPLRTKLELLEGTGCVDAAWVLRFDRNFSEISAQAFIDRLLRQTLNTRYLLVGDDFRFGAGREGCFELLAQQPDMQTERTPSVIVEDIRTSSTAVRQALSDGNLAYAKKLLGHDYVLGGRVVHGRKLGRTLNAPTANIRLPGHRYALGGVFVVEADGAFGTRRGVASFGFNPTVDGGCSQKLEVHLFDFQGDLYGQRLNVRFLHKLRDEEKFDGMEELKRRIEADMEAAKCW	not failed
MSFASETKKELTNLEVKDCCAKAELSALIRMNGSLSFSNRKVVLDVQTENAAIARRIYTLLKKQYDVSVELLVRKKMRLKKNNVYIVRLIENAKPILEDLKILGDNFVIARNISEDLVKKRCCKRSYMRGAFLAGGSVNNPETSSYHLEIFSLYKEHNDSLCRLMNQFHLNSKTLERKKGYITYLKEAEKITEFLNVIGAHNSLLRFEDVRIVRDMRNSVNRLVNCETANLNKTIGASLRQVENIKLIDERIGLDALPEKLREIAQLRIDYQEVTLKELGEMVSSGKISKSGINHRLRKLDEIAEQLR	not failed
MSFEAFTELYIRDVKNRLKENTWLTKEHIIRTKILPFFGKLKISEISTKEIITWQNEMLAYRDEKKKPYSQTYLKTLHNQLSAIFNHAVRYYELRSNPAAKVGNMGSELEHHHHHH	not failed
MSFKVISTGPQAIFQDRGRFGFASAGVGTSGSFDRLSAARANHALGNDPNATVVEILLGGFEVEALHTTSIVFTGTEAEVMVRTAGGQSKNATTNTIIDVAAGERIRVEPATYGMRAYFAARGGFAVEKTLGSASTDLISHMGPRPIEPGDVIDVATDIADSQWWPKLRQLPTLWKRMPTETLTVIRGPRDKWFTQESLNNFFTQVFTVSNDSNRIGLRMHSSEPIQHRVEGELKSEGMVRGSIQIPPGGNPVVFGPDHPVTGGYPVIAVLTSRSCDRSAQLLPGDKVRFKLL	failed
MSFRVSASSSVKPEKDIRIGLLGASGYTGAEIVRLLANHPHFQVTLMTADRKAGQSMESVFPHLRAQKLPTLVSVKDADFSTVDAVFCCLPHGTTQEIIKELPTALKIVDLSADFRLRNIAEYEEWYGQPHKAVELQKEVVYGLTEILREDIKKARLVANPGCYPTTIQLPLVPLLKANLIKHENIIIDAKSGVSGAGRGAKEANLYSEIAEGISSYGVTRHRHVPEIEQGLSDVAQSKVTVSFTPHLMPMIRGMQSTIYVEMAPGVRTEDLHQQLKTSYEDEEFVKVLDEGVVPRTHNVRGSNYCHMSVFPDRIPGRAIIISVIDNLVKGASGQALQNLNIMLGYPETTGLLHQPLFP	failed
